One series relates to HFD-fed C57BL/6J mice. The series can be described thus: rDj1 tail-vein injection daily for 5 days in HFD-fed mice. Type of series: in vivo, mouse. As for the experimental part:
C57BL/10cSn-Dmd^mdx/J (001801, mdx) and C57BL/10ScSnJ (000476, WT) mice were ordered directly from The Jackson Laboratory. Different ages of mdx and WT mice were obtained. Animals were weaned 21 days after birth and had free access to food and water and were housed on 12 h light-dark cycle. C57BL/6J males were introduced to a normal diet (NC, Research Diets D15100601) or high-fat diet (HFD, Research Diets D12331), and maintained on a diet for the indicated time. The HFD diet derives 58% of its kilocalories (kcal) from fat (soybean and coconut oil), 25.5% from carbohydrates (sucrose and maltodextrin), and 16.4% from protein (casein). NASH model mice were fed for up to 28 weeks with the NASH diet (Envigo, TD.120528) and 42% fructose (Sigma, F0127) in the water (1,2). The NASH diet is composed of 405.36 g/Kg sucrose and 12.5 g/Kg cholesterol. Recombinant mouse Dj1 protein (Novus, NBP2-59523) or truncated mouse Dj1 (tDj1, GenScript) protein was intravenously injected every day for 5 days or every other day for 2 weeks. Skeletal muscle-specific Park7 knockout mice were generated by crossing Park7 flox mice with Myl1-cre mice (JAX, #024713). Mice were raised in microisolator cages with a 12 h: 12 h light: dark cycle. All procedures were performed in accordance with the Guide for Care and Use of Laboratory Animals of the National Institutes of Health, and were approved by the Animal Subjects Committee of the University of California, Los Angeles.
Cryosections (10-μm thick transverse sections of frozen muscle cut in a cryostat (Leica) at −20° C.) were subjected to hematoxylin & eosin (H&E) staining (10, 54). Liver tissues were fixed in phosphate-buffered 10% formalin and embedded in paraffin wax. Sections were cut and stained with H&E.
Plasma and liver NEFA, Cholesterol, and Triglyceride were analyzed by their respective kits (FUJIFILM Wako Diagnostics)
About 80 mg of liver samples were homogenized and sonicated in PBS (pH 7.4) for lipid extraction. An internal standard mixture (ISTD) and CHCl3:methanol (2:1) were added to the samples before being vortexed, mixed, sonicated, and centrifuged. The supernatant containing the lipid was removed and dried, the lipids were resuspended in ethanol and then sonicated.
(§1) AMPK signaling is vital for lipid metabolism in the liver (19). […] These findings indicate that Dj1 could enhance lipid metabolism and ameliorate HFD-induced hepatic steatosis. rDj1 was tail-vein injected into mice fed with a chow diet (NC) or high-fat diet (HFD) daily for 5 days. […] Although body weights and fasting blood glucose levels of HFD-fed mice were unchanged during the rDj1 administration, rDj1 indeed enhanced glucose homeostasis and insulin action, as evidenced by improving glucose tolerance tests and insulin tolerance tests, respectively (FIGS. 4K-4M, 4U-4Z).

Another series concerns PPARα. The series can be described thus: PPARα expression and transcriptional activity in the liver. Type of series: in vivo, mouse. Conditions: liver of NC-fed mice. As to the method:
(§2) Also, the transcriptional activity of PPARα was determined to be elevated by Dj1 administration in the liver of both NC- and HFD-fed mice (FIGS. 6L, 6M, 6S, 6T). Furthermore, Dj1 elevated plasma β-hydroxybutyrate (a ketone body) levels in NC-fed mice but not in HFD-fed mice (FIG. 6N, 6U).

The next series has as its system AML12 cells. The series can be described thus: Fluorescent-labeled rDj1 binding to plasma membrane of liver cells. Type of series: cell-based, mouse. Conditions: Alex 488-labeled rDj1 added to medium, fluorescent microscopy. As for the experimental part:
(§3) Myokines contribute to whole-body metabolism by directly signaling to distant organs (15-18). To determine which organs Dj1 targets, WT mice were tail-vein injected with a recombinant Dj1 (rDj1) protein labeled with the near-infrared fluorescent dye IRDye 800CW, and the fluorescent signals were tracked using an optical imaging system (FIGS. 3I, 3J). A robust fluorescent signal could be detected within 5 minutes post-injection. […] Considering that the reagents injected through tail-vein often nonspecifically target the liver, fluorescent-labeled rDj1 was used to determine whether Dj1 could bind to the plasma membrane of liver cells. rDj1 was labeled with Alex 488 and added into the medium of mouse liver cells (AML12 cells) at the indicated time.

Series [1] concerns liver inflammation, de-novo lipogenesis and gluconeogenesis genes. The series can be described thus: Gene expression in the liver of NC- or HFD-fed mice. It is filed as in vivo, mouse. As for the experimental part:
A wide variety of mechanisms activate the JNK pathway. […] Moreover, ASK1 is activated by various stresses, including oxidative stress, ER stress, calcium overload, and receptor-mediated inflammatory signals such as TNFα and lipopolysaccharide (LPS) (26,27). rDj1 administration suppressed both baseline and TNFα-induced ROS levels in HepG2 cells, which may contribute to reducing liver inflammation (FIG. 6F).
as §2

A further series deals with HepG2 cells. As to the kind of experiment: Fatty acid oxidation and lipid content in HepG2 cells. Type of series: cell-based, human. As for the experimental part:
Mouse myoblast cells (C2C12) were maintained in high glucose DMEM/high, 10% fetal bovine serum with penicillin/streptomycin. pRK5-Dj1-HA plasmid was purchased from Addgene (#29396). Seeded cells were cultured in 6-well plates for 24 hours prior to transfection. Transfections were performed using Lipofectamine 2000 and PLUS reagent according to manufacturer instructions (Invitrogen, Carlsbad, CA). Human HepG2 cells were cultured in DMEM/low media containing 10% fetal bovine serum with penicillin/streptomycin. Mouse AML12 cells were maintained in DMEM/F12, ITS supplement (Gibco, USA), 40 ng/ml dexamethasone, and 10% fetal bovine serum with penicillin/streptomycin. For in vitro experiments, HepG2 cells were treated with or without recombinant human Dj1 protein (Novus, NBC1-18334) in serum-free media containing 25 mM glucose, 200 μM palmitic acid, and 0.25% bovine serum albumin for an indicated time.
as §1

Another series concerns HFD-fed mice. The series can be described thus: Indirect calorimetry in HFD-fed mice. It is filed as in vivo, mouse. As to the method: Elevated AMPK signaling and reduced lipid content in the liver led to the hypothesis that rDj1 might activate the whole-body energy metabolism of mouse. Therefore, the metabolic rate was determined in HFD-fed mice by indirect calorimetry.

The nature of series [2]: Intravital imaging of IRDye 800CW-labeled Dj1 after tail-vein injection. It is filed as in vivo, mouse. The note with it: WT mice. As to the method: Recombinant mouse Dj1 protein (NBP2-59523, Novus) were labeled with near-infrared dyes using IRDye 800CW protein labeling kit-Low MW (Li-COR Biosciences) as described in the manufacturer's instructions. 10 μg of labeled Dj1 protein was injected into wild-type C57BL/6J mouse through the tail vein. The mice were imaged at the indicated time using an IVIS Spectrum (PerkinElmer). For tissue analysis, recipient mice were euthanized by cervical dislocation, and tissues were then dissected and imaged. Fluorescence was detected using excitation and emission filters at 745 nm and 800 nm, respectively.
as §3

B1: rDj1: full-length recombinant Dj1 protein; mouse protein (Novus, NBP2-59523) injected in mice, human protein used in HepG2 cells (protein, UniProt Q99LX0 1-189, looked up)
chain: MASKRALVILAKGAEEMETVIPVDVMRRAGIKVTVAGLAGKDPVQCSRDVMICPDTSLEDAKTQGPYDVVVLPGGNLGAQNLSESPMVKEILKEQESRKGLIAAICAGPTALLAHEVGFGCKVTTHPLAKDKMMNGSHYSYSESRVEKDGLILTSRGPGTSFEFALAIVEALVGKDMANQVKAPLVLKD
modifications: full-length
notes: full-length recombinant Dj1 protein; mouse protein (Novus, NBP2-59523) injected in mice, human protein used in HepG2 cells
As to B1, in the series on HFD-fed C57BL/6J mice (0.15 mg/kg/day IV for 5 days), the “TGs levels in the liver” value is “decreasing”, the glucose tolerance tests result was “improving” and the insulin tolerance tests result was “improving”. Also, the “liver H&E staining, lipids” value with HFD-fed C57BL/6J mice (daily for 5 days) is on record as “fewer lipids”. In the series with HFD-fed C57BL/6J mice (during rDj1 administration), the body weights entry is given as “unchanged” and the “fasting blood glucose levels” value is “unchanged”. The “transcriptional activity of PPARα” value in the series with PPARα was “elevated”. Besides, the “localization of labeled rDj1 on liver cells” value in the series with AML12 cells was “colocalized with the plasma membrane”. Further, in series [1] (liver of HFD-fed mice), the “reduction of gene expression of de-novo lipogenesis” value is given as “blunted” and the “reduction of gene expression of gluconeogenesis” value is reported as “blunted”. Also, in series [1] (liver of NC-fed mice), the “gene expression of de-novo lipogenesis” value is reported as “reduced” and the “gene expression of gluconeogenesis” value is reported as “reduced”. Moreover, in the series on HepG2 cells, the “Oil Red O staining (neutral lipids)” value was “reduced”, the fatty acid oxidation result is given as “significantly promoted” and the “triacylglycerol (TG) levels” value is reported as “reduced”. In the series with HFD-fed mice, the “energy expenditure (EE)” value is on record as “elevated”, the “oxygen consumption (VO2)” value is listed as “elevated” and the “respiratory exchange ratio (RER)” value was “reducing”. The “organs in which most fluorescent signals accumulated” value in series [2] (4 hours post-injection, tail-vein) is “accumulated in the liver, kidney, and urine”. In series [2] (IRDye 800CW-labeled rDj1, tail-vein), the “time until robust fluorescent signal detected post-injection” value was at most 5 min.

Values taken from patent publication US20250339501A1, “COMPOSITIONS AND METHODS FOR TREATING METABOLIC DISEASE” (The Regents of the University of California, priority 2021, published 2025).
